US20240033291A1 (CELLENGENE, published 2024)

Biological target: human mesothelin protein (MSLN antigen, Acro Biosystems) (human, UniProt Q13421 37-622)
Assay: ELISA, coated human mesothelin 1 ug/mL, purified scFv serially diluted, anti-StrepMAB HRP

human mesothelin protein (MSLN antigen, Acro Biosystems), sequence (Q13421 37-630): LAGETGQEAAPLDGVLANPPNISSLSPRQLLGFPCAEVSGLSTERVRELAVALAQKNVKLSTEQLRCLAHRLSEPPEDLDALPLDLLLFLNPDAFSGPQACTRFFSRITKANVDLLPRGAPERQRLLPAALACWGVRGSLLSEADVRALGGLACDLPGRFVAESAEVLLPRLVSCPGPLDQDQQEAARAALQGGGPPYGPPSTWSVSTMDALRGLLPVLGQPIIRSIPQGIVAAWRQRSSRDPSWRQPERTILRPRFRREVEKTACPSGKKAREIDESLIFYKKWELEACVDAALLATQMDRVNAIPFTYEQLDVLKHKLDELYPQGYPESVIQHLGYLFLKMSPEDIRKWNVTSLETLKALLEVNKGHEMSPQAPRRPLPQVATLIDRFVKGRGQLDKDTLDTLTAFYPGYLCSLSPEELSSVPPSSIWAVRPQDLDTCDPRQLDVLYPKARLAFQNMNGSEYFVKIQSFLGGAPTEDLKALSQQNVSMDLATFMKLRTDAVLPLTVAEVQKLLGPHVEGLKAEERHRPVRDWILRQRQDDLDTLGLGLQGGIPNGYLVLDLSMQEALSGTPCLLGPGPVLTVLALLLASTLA

B1: anti-MSLN-scFv antibody MSLN3 (purified scFv) (scFv)
chain: EVQLVESGGGLVQPGGSLRLSCAASGFTFSDYAMSWVRQAPGKGLEWVSAISSSGGTTYYADSVKGRFTISRDNSKNTLYLQMNSLRAEDTAVYYCAKEEEGEWREYFDVWGQGTLVTVSSGGGGSGGGGSGGGGSDIQMTQSPSSLSASVGDRVTITCRASQSISSYLNWYQQKPGKAPKLLIYATSTLQSGVPSRFSGSGSGTDFTLTISSLQPEDFATYYCQQSYTFPYTFGQGTKVEIKAST
EC50: 145 nM
